Results on five molecules are retold here after US12698507B2, “Methods and compositions for conferring and/or enhancing herbicide tolerance using protoporphyrinogen IX oxidase of various cyanobacteria or variant thereof” (FarmHannong Co., Ltd., priority 2019, dated 2026).

For this assay, the system named is PPO-deficient BT3 E. coli (ΔPPO). The assay can be described thus: PPO-inhibiting herbicide tolerance test of PPO variants in E. coli (growth on herbicide-containing LB agar). Type of assay: cell-based. The settings on record: LB agar with 0 to 2,000 μM herbicide, 37° C., dark, 16-20 hours. The procedure, abridged: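 Tolerance was scored against wild-type enzyme: '−' for equal growth, one '+' per 10-fold gain, up to '+++++'. ΔPPO BT3 cells carrying variant plasmids, spotted as a 10-fold dilution series from OD600=0.5, grew 16-20 h at 37° C. in the dark on ampicillin LB agar containing 0 to 2,000 μM herbicide.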

Setting [1] is: CyPPO18 variants in BT3 (ΔPPO) E. coli.
The mark [2] stands for this setting: CyPPO19 variants in BT3 (ΔPPO) E. coli.

B1: CyPPO18 R89A + V165S + V305M + F360I: variant of CyPPO18 PPO protein (SEQ ID NO: 3) (protein)
chain: MIEVDVAIVGGGLSGLSVAWRLQRSAPHYSGVLLEASDRLGGNITTQAAEGFVWELGPNSFAPTPALLQLIAEVGLHSELIRGDRHLPAYIYWRGELYPLEPTRPLALATSNLLSPWGKVRAALGALGFVPPYLGSGDESVDSFFRRHLGQEVAERLVAPFVSGSYAGDPQQLSAAAAFRRIAQLEKLGGSLIAGALRLRRQQPPQPKPPAQVQMRPGELGSFREGLAALPRAIAQQLKAPLHLQTPVEAITPEPKGGYLLRSGEQTWHARSVVLATPAYQSAELVAPFQPAIARALATIPYPTMACVVLAYPAGLGRSVRPGFGVLVPRGQGIRTLGTIWSSCLFPQRTPAGWQVFTSIIGGATDPDLASLREEAIVEQVQQDLTRLLDLPAAKARLLGMKVWRRAIPQYIVGYPQQWQQLTHALTQTPGLFLCSNYAEGVALGDRVEHGNRTAAAVAAYLAGGQS
modifications: Synthetic_PPO of Thermosynechococcus vulcanus NIES-2134 (BAY51976)
For the molecule B1, under setting [1], the “tolerance level relative to wild type, Carfentrazone” value is recorded as “++ (‘+’ per each 10-fold resistance)”; the “tolerance level relative to wild type, Flumioxazin” value was “+++++ (until ‘+++++’ as maximal resistance)”; the “tolerance level relative to wild type, Fomesafen” value is “+++++ (until ‘+++++’ as maximal resistance)”; the “tolerance level relative to wild type, Oxyfluorfen” value was “++ (‘+’ per each 10-fold resistance)”. In addition, under setting [1], the “tolerance level relative to wild type, Saflufenacil” value is reported as “+++++ (until ‘+++++’ as maximal resistance)”; the “tolerance level relative to wild type, Sulfentrazone” value is on record as “+++++ (until ‘+++++’ as maximal resistance)”; the “tolerance level relative to wild type, Tiafenacil” value is “+++++ (until ‘+++++’ as maximal resistance)”.

B2: CyPPO19 R89A + A167C + F360L: variant of CyPPO19 PPO protein (SEQ ID NO: 1) (protein)
chain: MSEVDVAIVGGGLSGLSLAWRLQQSAPQYSVVLLEASDRLGGNITTQTAEGFVWELGPNSFAPTPALLQLIAEVGLQSELIRGDRHLPAYIYWRGQLYPLQPTRPLALATSNLLSPWGKVRAALGALGFVPPYLGSGDESVNSFFRRHLGQEVAERLVAPFVSGVYCGDPQQLSAAAAFRRIAQLEKLGGGLIAGALHLRRQQAPKPKPPTSVQMRPGELGSFKEGLAALPRAIAQQLKAPIHLQTPVQEITPDPKGGYLLRSGEQTWRARSVVLATPAYQTAELVAPFQPAIARVLATIPYPTVACVVLAYPAGLGRSVRPGFGVLIPRSQGIRTLGTIWSSCLFPQRTPAGWQVFTSLIGGATDPDLASLSEEAIVQQVQQDLNRLLDLPAAKARLLGMKVWRRAIPQYMVGYPEQWQQVTHALSQTPGLFLCSNYAEGVALGDRVEHGNRTAAAVAAYLSGGQP
modifications: Synthetic_PPO of Thermosynechococcus elongatus PKUAC-SCTE542 (comprising GenBank No. CP032152.1)
In the case of B2, under setting [2], the “tolerance level relative to wild type, Carfentrazone” value is “++ (‘+’ per each 10-fold resistance)”; the “tolerance level relative to wild type, Flumioxazin” value is given as “++++ (‘+’ per each 10-fold resistance)”; the “tolerance level relative to wild type, Fomesafen” value is listed as “++ (‘+’ per each 10-fold resistance)”; the “tolerance level relative to wild type, Oxyfluorfen” value is listed as “+++ (‘+’ per each 10-fold resistance)”. Under setting [2], the “tolerance level relative to wild type, Saflufenacil” value is reported as “++++ (‘+’ per each 10-fold resistance)”; the “tolerance level relative to wild type, Sulfentrazone” value is “++++ (‘+’ per each 10-fold resistance)”; the “tolerance level relative to wild type, Tiafenacil” value is recorded as “++++ (‘+’ per each 10-fold resistance)”.

B3: CyPPO19 R89A + A167L + F360T: variant of CyPPO19 PPO protein (SEQ ID NO: 1) (protein)
chain: MSEVDVAIVGGGLSGLSLAWRLQQSAPQYSVVLLEASDRLGGNITTQTAEGFVWELGPNSFAPTPALLQLIAEVGLQSELIRGDRHLPAYIYWRGQLYPLQPTRPLALATSNLLSPWGKVRAALGALGFVPPYLGSGDESVNSFFRRHLGQEVAERLVAPFVSGVYLGDPQQLSAAAAFRRIAQLEKLGGGLIAGALHLRRQQAPKPKPPTSVQMRPGELGSFKEGLAALPRAIAQQLKAPIHLQTPVQEITPDPKGGYLLRSGEQTWRARSVVLATPAYQTAELVAPFQPAIARVLATIPYPTVACVVLAYPAGLGRSVRPGFGVLIPRSQGIRTLGTIWSSCLFPQRTPAGWQVFTSTIGGATDPDLASLSEEAIVQQVQQDLNRLLDLPAAKARLLGMKVWRRAIPQYMVGYPEQWQQVTHALSQTPGLFLCSNYAEGVALGDRVEHGNRTAAAVAAYLSGGQP
modifications: Synthetic_PPO of Thermosynechococcus elongatus PKUAC-SCTE542 (comprising GenBank No. CP032152.1)
Regarding B3, under setting [2], the “tolerance level relative to wild type, Carfentrazone” value is “++ (‘+’ per each 10-fold resistance)”; the “tolerance level relative to wild type, Flumioxazin” value is listed as “++++ (‘+’ per each 10-fold resistance)”; the “tolerance level relative to wild type, Fomesafen” value was “++ (‘+’ per each 10-fold resistance)”; the “tolerance level relative to wild type, Oxyfluorfen” value was “++ (‘+’ per each 10-fold resistance)”. Moreover, under setting [2], the “tolerance level relative to wild type, Saflufenacil” value was “++++ (‘+’ per each 10-fold resistance)”; the “tolerance level relative to wild type, Sulfentrazone” value is reported as “+++ (‘+’ per each 10-fold resistance)”; the “tolerance level relative to wild type, Tiafenacil” value is “++++ (‘+’ per each 10-fold resistance)”.

B4: CyPPO19 R89A + V305M + F360I: variant of CyPPO19 PPO protein (SEQ ID NO: 1) (protein)
chain: MSEVDVAIVGGGLSGLSLAWRLQQSAPQYSVVLLEASDRLGGNITTQTAEGFVWELGPNSFAPTPALLQLIAEVGLQSELIRGDRHLPAYIYWRGQLYPLQPTRPLALATSNLLSPWGKVRAALGALGFVPPYLGSGDESVNSFFRRHLGQEVAERLVAPFVSGVYAGDPQQLSAAAAFRRIAQLEKLGGGLIAGALHLRRQQAPKPKPPTSVQMRPGELGSFKEGLAALPRAIAQQLKAPIHLQTPVQEITPDPKGGYLLRSGEQTWRARSVVLATPAYQTAELVAPFQPAIARVLATIPYPTMACVVLAYPAGLGRSVRPGFGVLIPRSQGIRTLGTIWSSCLFPQRTPAGWQVFTSIIGGATDPDLASLSEEAIVQQVQQDLNRLLDLPAAKARLLGMKVWRRAIPQYMVGYPEQWQQVTHALSQTPGLFLCSNYAEGVALGDRVEHGNRTAAAVAAYLSGGQP
modifications: Synthetic_PPO of Thermosynechococcus elongatus PKUAC-SCTE542 (comprising GenBank No. CP032152.1)
B4: under setting [2], the “tolerance level relative to wild type, Carfentrazone” value is reported as “+ (‘+’ per each 10-fold resistance)”; the “tolerance level relative to wild type, Flumioxazin” value is recorded as “+++ (‘+’ per each 10-fold resistance)”; the “tolerance level relative to wild type, Fomesafen” value is “+ (‘+’ per each 10-fold resistance)”; the “tolerance level relative to wild type, Oxyfluorfen” value is “+ (‘+’ per each 10-fold resistance)”. Under setting [2], the “tolerance level relative to wild type, Saflufenacil” value is “+++ (‘+’ per each 10-fold resistance)”; the “tolerance level relative to wild type, Sulfentrazone” value was “++ (‘+’ per each 10-fold resistance)”; the “tolerance level relative to wild type, Tiafenacil” value is listed as “+++ (‘+’ per each 10-fold resistance)”.

B5: CyPPO19 R89A + V305M + F360V: variant of CyPPO19 PPO protein (SEQ ID NO: 1) (protein)
chain: MSEVDVAIVGGGLSGLSLAWRLQQSAPQYSVVLLEASDRLGGNITTQTAEGFVWELGPNSFAPTPALLQLIAEVGLQSELIRGDRHLPAYIYWRGQLYPLQPTRPLALATSNLLSPWGKVRAALGALGFVPPYLGSGDESVNSFFRRHLGQEVAERLVAPFVSGVYAGDPQQLSAAAAFRRIAQLEKLGGGLIAGALHLRRQQAPKPKPPTSVQMRPGELGSFKEGLAALPRAIAQQLKAPIHLQTPVQEITPDPKGGYLLRSGEQTWRARSVVLATPAYQTAELVAPFQPAIARVLATIPYPTMACVVLAYPAGLGRSVRPGFGVLIPRSQGIRTLGTIWSSCLFPQRTPAGWQVFTSVIGGATDPDLASLSEEAIVQQVQQDLNRLLDLPAAKARLLGMKVWRRAIPQYMVGYPEQWQQVTHALSQTPGLFLCSNYAEGVALGDRVEHGNRTAAAVAAYLSGGQP
modifications: Synthetic_PPO of Thermosynechococcus elongatus PKUAC-SCTE542 (comprising GenBank No. CP032152.1)
B5: under setting [2], the “tolerance level relative to wild type, Carfentrazone” value was “+ (‘+’ per each 10-fold resistance)”; the “tolerance level relative to wild type, Flumioxazin” value is recorded as “+++ (‘+’ per each 10-fold resistance)”; the “tolerance level relative to wild type, Fomesafen” value was “+ (‘+’ per each 10-fold resistance)”; the “tolerance level relative to wild type, Oxyfluorfen” value is on record as “+ (‘+’ per each 10-fold resistance)”. Also, under setting [2], the “tolerance level relative to wild type, Saflufenacil” value is “+++ (‘+’ per each 10-fold resistance)”; the “tolerance level relative to wild type, Sulfentrazone” value is reported as “++ (‘+’ per each 10-fold resistance)”; the “tolerance level relative to wild type, Tiafenacil” value is “+++ (‘+’ per each 10-fold resistance)”.
